Measured values published in paper PMC11552376, “Specific binding between Arabidopsis thaliana phytochrome-interacting factor 3 (AtPIF3) bHLH and G-box originated prior to embryophyte emergence” (BMC Plant Biology, 2024).

Legend:
[1] = target: AtPIF3-bHLH K362A mutant (Arabidopsis thaliana) (UniProt O80536); assay: SEC; Superdex75 size exclusion column, UV trace at 280 nm, compared with molecular weight standards (albumin, carbonic anhydrase, cytochrome c, vitamin B12); gel filtration buffer of the methods: 30 mM HEPES, 500 mM NaCl, pH 7.4; oligomeric state of the protein with itself
AtPIF3-bHLH WT [2] = target: T1, AtPIF3-bHLH WT (Arabidopsis thaliana, UniProt O80536 340-397); assay: EMSA; DNA:protein 1:1 to 1:20; ITC: 30 mM HEPES, 125 mM NaCl, pH 7.5, 25 C, 400 uM protein into 40 uM DNA; fEMSA: 30 mM HEPES, 500 mM NaCl, pH 7.4, on ice 30 min, 3 uM probe, 10% native gel in 0.5x TBE at 4 C; conditions: protein: recombinant; tags: C-terminal His6; chain copies: 2; label: 5' fluorescein; blunt
T1 sequence: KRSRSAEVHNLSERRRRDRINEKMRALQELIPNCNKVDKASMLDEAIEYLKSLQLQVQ

[3] = target: the molecule itself; assay: SEC; Superdex75 size exclusion column, UV trace at 280 nm, compared with molecular weight standards (albumin, carbonic anhydrase, cytochrome c, vitamin B12); gel filtration buffer of the methods: 30 mM HEPES, 500 mM NaCl, pH 7.4; oligomeric state of the protein with itself
AtPIF3-bHLH WT [4] = target: T1, AtPIF3-bHLH WT; assay: ITC; ITC: 30 mM HEPES, 125 mM NaCl, pH 7.5, 25 C, 400 uM protein into 40 uM DNA; fEMSA: 30 mM HEPES, 500 mM NaCl, pH 7.4, on ice 30 min, 3 uM probe, 10% native gel in 0.5x TBE at 4 C; conditions: protein: recombinant; tags: C-terminal His6; chain copies: 2; blunt

Molecule: AtPIF3-bHLH K362A mutant (from UniProt O80536 343-392) (domain or fragment)
- stoichiometry N [1]: 2

B1: pPIL1 G-box (dsDNA)
DNA 1: GCATTCACGTGAAGT
DNA 2: ACTTCACGTGAATGC
- binding result (AtPIF3-bHLH WT [2]): binds

B2: AtPIF3-bHLH M399A mutant (domain or fragment, Arabidopsis thaliana, UniProt O80536 343-399, looked up)
chain: RSAEVHNLSERRRRDRINEKMRALQELIPNCNKVDKASMLDEAIEYLKSLQLQVQIA
notes: bHLH domain of PIF3 (AT1G09530), Arabidopsis thaliana, with M399A; Site-directed mutant of m1
- stoichiometry N [3]: 2

B3: Arabidopsis thaliana PIF3-bHLH (AtPIF3-bHLH) recombinant protein, wild type (domain or fragment, UniProt O80536 340-399, looked up)
chain: KRSRSAEVHNLSERRRRDRINEKMRALQELIPNCNKVDKASMLDEAIEYLKSLQLQVQIM
notes: Cloned between NheI and XhoI of pET21b; also called PIF3-bHLH–His6; WT; source: E. coli Rosetta (DE3), pET21b, purified (HisTrap FF, Superdex75 gel filtration); not shown: His6, C-terminal, kept
- stoichiometry N [3]: 2

B4: G-box (PER2), ITC (dsDNA)
DNA 1: AGGAACACGTGACCC
DNA 2: GGGTCACGTGTTCCT
- Kd (AtPIF3-bHLH WT [4]): 320 ± 14 nM
